For orientation: IC50 means the midpoint of a concentration-inhibition curve. A higher IC50 goes with weaker potency. The Km is the substrate concentration at which the rate is half of its maximum. As usually defined, the stoichiometry N is the number of molecules, sites or subunits per partner or assembly.

We go through four molecules from publication PMC4237437, “Biochemical and Structural Characterization of Mycobacterial Aspartyl-tRNA Synthetase AspS, a Promising TB Drug Target” (PLoS ONE, 2014).

Data set [1] has as its target T1, Mt-AspS (M. tuberculosis aspartyl-tRNA synthetase) (Mycobacterium tuberculosis, UniProt P9WFW3).
T1 construct: C-terminally His6-tagged Mt-AspS (pET28b)
In words: biochemical.

Data set [2] relates to Nc1ncnc2c1ncn2[C@@H]1O[C@H](COP(=O)(O)OP(=O)(O)NP(=O)(O)O)[C@@H](O)[C@H]1O. In words: purified protein.
The next data set relates to N[C@@H](CC(=O)O)C(=O)O. Put plainly: purified protein.
Data set [3] has as its system Nc1ncnc2c1ncn2[C@@H]1O[C@H](COP(=O)(O)OP(=O)(O)CP(=O)(O)O)[C@@H](O)[C@H]1O. Put plainly: purified protein.
The test system of another data set is O=P(O)(O)OP(=O)(O)O. In words: purified protein.
Data set [4] deals with the molecule itself. In words: crystal structure; apo Ms-AspS, 2.4 Å, space group C222(1), one molecule per asymmetric unit; the two monomers of the dimer are related by crystal symmetry; crystals from 30% pentaerythritol ethoxylate, 0.1 M magnesium formate, 0.1 M Tris-HCl pH 8.5.

T1 sequence (P9WFW3 whole entry): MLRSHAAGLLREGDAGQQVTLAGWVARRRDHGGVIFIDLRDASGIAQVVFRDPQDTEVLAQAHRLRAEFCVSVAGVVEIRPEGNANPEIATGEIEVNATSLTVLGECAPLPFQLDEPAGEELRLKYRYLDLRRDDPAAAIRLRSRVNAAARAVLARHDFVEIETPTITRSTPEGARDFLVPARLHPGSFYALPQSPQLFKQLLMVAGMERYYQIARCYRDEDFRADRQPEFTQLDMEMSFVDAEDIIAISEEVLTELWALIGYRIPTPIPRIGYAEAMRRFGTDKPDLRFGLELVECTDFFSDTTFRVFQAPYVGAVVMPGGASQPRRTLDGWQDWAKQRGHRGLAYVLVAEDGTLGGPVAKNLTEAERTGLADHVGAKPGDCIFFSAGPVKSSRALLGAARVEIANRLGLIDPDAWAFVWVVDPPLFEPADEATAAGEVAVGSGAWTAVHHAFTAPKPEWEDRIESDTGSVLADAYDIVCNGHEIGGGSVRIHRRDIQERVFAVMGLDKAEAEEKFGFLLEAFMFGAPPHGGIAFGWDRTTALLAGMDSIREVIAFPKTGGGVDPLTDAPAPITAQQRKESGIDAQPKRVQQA

For the molecule `NC(=O)C1CCN(C2=NC(=O)/C(=C\c3ccc(Cl)cc3Cl)S2)CC1` [compound 1, F1673-0402], the half-maximal inhibitory concentration (IC50) in data set [1] worked out at 49.9 µM.
Still for that read-out and setting: the figure for `CCOC(=O)C1CCN(C2=NC(=O)/C(=C\c3ccc(Cl)cc3)S2)CC1` [compound 2, 6632725] is 59.1 µM.
As to “Mt-AspS (M. tuberculosis aspartyl-tRNA synthetase) (Mycobacterium tuberculosis H37Rv)”, the Michaelis constant (Km) in data set [2] came out at 604.7 ± 40.27 µM; in the data set with N[C@@H](CC(=O)O)C(=O)O it was 143.4 ± 18.83 µM; in data set [3] it was 98.25 ± 11.23 µM; with O=P(O)(O)OP(=O)(O)O it was 76.42 ± 10.10 µM.

B1: Mycobacterium smegmatis aspartyl-tRNA synthetase AspS (enzyme, UniProt A0QWN3 1-598, looked up)
chain: MLRTHAAGSLRPADAGQTVTLAGWVARRRDHGGVIFIDLRDASGVSQVVFREGDVLAAAHRLRAEFCVAVTGVVEVRPEGNENPEIPTGQIEVNATELTVLGESAPLPFQLDEQAGEEARLKYRYLDLRREGPGNALRLRSKVNAAARSVLAEHDFVEIETPTLTRSTPEGARDFLVPARLQPGSFYALPQSPQLFKQLLMVAGMERYYQIARCYRDEDFRADRQPEFTQLDMEMSFVEADDVIAISEQVLKAVWATIGYDLPLPLPRISYEEAMRRFGSDKPDLRFGIELVECTEYFKDTTFRVFQAPYVGAVVMPGGASQPRRTLDGWQEFAKQRGHKGLAYVLVGEDGTLGGPVAKNLSDAERDGLVAHVGANPGDCIFFAAGPAKGARALLGATRIEIAKRLDLIDPNAWAFTWVVDFPMFEAADEATAAGDVAVGSGAWTAMHHAFTAPKPDSVDTFDSDPGNALSDAYDIVCNGNEIGGGSIRIHRRDIQERVFAMMGIDHDEAQEKFGFLLDAFSYGAPPHGGIAFGWDRITALLAGVDSIREVIAFPKSGGGVDPLTDAPAPITPQQRKESGIDAKPREDKPKEDAKSKA
notes: Aspartyl-tRNA synthetase AspS of Mycobacterium smegmatis; The expression and purification protocol is printed only for Mt-AspS (E. coli C41 (DE3), Ni2+ HisTrap); also called Ms-AspS; MsAspS; source: cloned from M. smegmatis genomic DNA into pET28b; dialysed and concentrated by ultrafiltration before crystallisation
Turning to B1, the “stoichiometry N” value in data set [4] came to 2.
